Reference: US9809653B2, “Anti-LAMP1 antibodies and antibody drug conjugates, and uses thereof” (SANOFI, priority 2012, dated 2017)
Values belong to the molecule of their own block, whether it stands above or below them.

Columns and labels:
[1] = biological target: T1, LAMP1 in FFPE colon adenocarcinoma PDX CR-LRB-010P and human breast carcinoma (Homo sapiens, UniProt P11279); assay: IHC on FFPE tumor tissue, LAMP1 membrane reinforcement; settings: FFPE samples
T1 construct: from tissue; host or cells: human tumoral and non-tumoral tissue sections and PDX tumour sections (frozen-OCT, AFA, FFPE)
T1 sequence (P11279 29-417): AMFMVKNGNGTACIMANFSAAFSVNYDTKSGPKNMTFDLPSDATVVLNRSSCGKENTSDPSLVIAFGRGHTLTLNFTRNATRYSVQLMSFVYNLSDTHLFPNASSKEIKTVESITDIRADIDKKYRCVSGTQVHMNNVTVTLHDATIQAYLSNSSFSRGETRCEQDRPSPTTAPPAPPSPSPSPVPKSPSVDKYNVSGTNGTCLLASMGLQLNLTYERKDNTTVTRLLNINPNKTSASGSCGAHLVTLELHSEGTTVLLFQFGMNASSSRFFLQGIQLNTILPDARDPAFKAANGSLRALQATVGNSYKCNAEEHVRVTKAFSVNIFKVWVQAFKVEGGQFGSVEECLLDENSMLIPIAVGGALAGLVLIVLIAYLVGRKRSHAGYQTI
Description: IHC analysis of tumor tissues from biobanks or from hospitals before or during patient treatment is routinely done with formalin-fixed paraffin-embedded (FFPE) samples. […] One of the reasons is probably the effect of the formalin fixative combined to the complexity of the protein. Samples processed in frozen OCT or AFA are not routinely prepared in hospitals. Therefore, there is a need to have a mAb that would allow complete and fast coverage of the FFPE tumor biobanks and hospital samples.
Rabbit polyclonal antibodies generated with peptides described in example 17.1.1 were tested by IHC on FFPE sample of colon adenocarcinoma patient derived xenograft CR-LRB-010P and human breast carcinoma. After antigen retrieval procedure and endogen biotins blocking steps, slides were incubated with the primary anti-antibody for 1 hour at 24° C. Negative controls were performed by omission of the primary antibody. The biotin free anti-rabbit UltraMap™ horseradish peroxidase (HRP) conjugate (760-4315, Ventana Medical Systems, Inc, USA) was used as secondary antibody system according to manufacturer's recommendations. A couterstaining step was done with hematoxylin (760-2037, Ventana Medical Systems, Inc, USA) and bluing reagent was applied (760-2037, Ventana Medical Systems, Inc, USA). Stained slides were dehydrated and coverslipped with cytoseal XYL (8312-4, Richard-Allan Scientific, USA).
As the same manner as in example 17.1.2, IHC screening was performed with the hybridoma supernatant to identify mouse monoclonal antibody showing LAMP1 membrane reinforcement on FFPE sample of colon adenocarcinoma patient derived xenograft CR-LRB-010P. The biotin free anti-mouse UltraMap™ horseradish peroxidase (HRP) conjugate (760-152, Ventana Medical Systems, Inc, USA) was used as secondary antibody system according to manufacturer's recommendations.

[2] = system: cynomolgus LAMP1 expressed at the cell surface of recombinant HCT116; assay: FACS on recombinant HCT116 stable clones expressing cynomolgus LAMP1; format: binding, cynomolgus monkey; settings: HCT116 stable clone
cynomolgus LAMP1 expressed at the cell surface of recombinant HCT116, sequence (as listed by the source): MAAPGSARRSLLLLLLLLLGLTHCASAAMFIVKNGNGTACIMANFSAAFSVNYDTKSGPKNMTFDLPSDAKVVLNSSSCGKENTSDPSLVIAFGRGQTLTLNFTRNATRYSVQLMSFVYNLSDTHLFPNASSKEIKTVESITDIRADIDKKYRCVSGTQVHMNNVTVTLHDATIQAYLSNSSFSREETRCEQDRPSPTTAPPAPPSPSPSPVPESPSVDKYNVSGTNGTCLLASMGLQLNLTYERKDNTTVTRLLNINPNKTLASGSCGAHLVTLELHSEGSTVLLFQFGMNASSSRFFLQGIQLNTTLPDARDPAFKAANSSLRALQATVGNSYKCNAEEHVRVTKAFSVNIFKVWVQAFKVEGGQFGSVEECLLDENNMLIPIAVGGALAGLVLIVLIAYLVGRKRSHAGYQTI
Protocol: HCT116 cells were infected by a lentiviral vector allowing stable integration of the human or the cynomolgus LAMP1 CDS in genomic DNA of cells. Individual clones with different densities of human or cynomolgus LAMP1 cell surface localization were derived from a pool of HCT116 infected cells. […] 100 μL/well of goat anti-human IgG conjugated with Alexa488 (Invitrogen; #A11013) was added for 1 h at 4° C. and washed two times with PBS 1% BSA. The antibody binding was evaluated after centrifugation and resuspension of cells in 100 μl fixing solution (paraformaldehyde at 4% in PBS). Samples were read using Galaxy® Flow Cytometry System (Partec). EC50 values were estimated using BIOST@T-SPEED software.
100 μL/well of goat anti-mouse IgG conjugated with Alexa647 (Invitrogen; #A2135) was added for 45 min at 4° C. and washed three times with PBS 1% BSA. The antibody binding was evaluated after centrifugation and re-suspension of cells by adding 200 μl/well PBS 1% BSA and read using Guava® easyCyte™ 8HT Flow Cytometry System. EC50 values were estimated using BIOST@T-SPEED software.

[3] = biological target: T2, Hybrid LAMP1 / glycan-deleted LAMP1 transmembrane proteins (Homo sapiens, UniProt P11279, D70S/L75K/R77G/S69A/T72E/V74L); assay: Binding onto membrane-anchored hybrid or mutated LAMP1 proteins (293-F cells) by flow cytometry; set-up: species or system human/mouse; settings: pXL6015 LAMP1_mseq4_ΔGYQTI; Table 18
T2 construct: expressed in transfected cells; host or cells: 293-F (HEK293-derived), transient transfection
T2 sequence (P11279 with tags, fused parts or gaps S69A/D70S/T72E/V74L/L75K/R77G): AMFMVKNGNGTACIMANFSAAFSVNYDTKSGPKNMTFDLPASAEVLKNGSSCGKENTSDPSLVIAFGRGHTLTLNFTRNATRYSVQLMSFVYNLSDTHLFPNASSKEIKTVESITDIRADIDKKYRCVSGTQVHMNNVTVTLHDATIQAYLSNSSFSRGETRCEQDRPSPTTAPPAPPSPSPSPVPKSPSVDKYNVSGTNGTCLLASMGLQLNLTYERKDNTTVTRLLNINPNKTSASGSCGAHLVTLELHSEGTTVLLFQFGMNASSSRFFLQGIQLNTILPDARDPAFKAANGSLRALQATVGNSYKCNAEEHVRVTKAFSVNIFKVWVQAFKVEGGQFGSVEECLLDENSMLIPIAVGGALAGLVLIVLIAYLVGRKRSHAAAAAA
Protocol: (§1) Different LAMP1 proteins were expressed at the cell membrane of HEK293 cells after transient expression from mammalian plasmids encoding the entire coding sequence of LAMP1 deleted of the intracellular lysosome-targeting motif GYQTI and substituted by a 5-Ala repeat sequence.
(§2) Two days post transfection cells were processed, analyzed by flow cytometry (Guava® easyCyte™ 8HT) as mentioned in example 4.7, and the mean fluorescence was recorded. This fluorescence represents a semi-quantitative assessment of binding.

[4] = biological target: T3, Hybrid LAMP1 / glycan-deleted LAMP1 transmembrane proteins (Mus musculus, UniProt P11438, E181G/G176S/K180R/N177S/S175N); assay: as above; set-up: species or system human/mouse; settings: pXL6048 mLAMP1_hseq11_ΔGYQTI
T3 construct: expressed in transfected cells; host or cells: 293-F (HEK293-derived), transient transfection
T3 sequence (P11438 with tags, fused parts or gaps S175N/G176S/N177S/K180R/E181G): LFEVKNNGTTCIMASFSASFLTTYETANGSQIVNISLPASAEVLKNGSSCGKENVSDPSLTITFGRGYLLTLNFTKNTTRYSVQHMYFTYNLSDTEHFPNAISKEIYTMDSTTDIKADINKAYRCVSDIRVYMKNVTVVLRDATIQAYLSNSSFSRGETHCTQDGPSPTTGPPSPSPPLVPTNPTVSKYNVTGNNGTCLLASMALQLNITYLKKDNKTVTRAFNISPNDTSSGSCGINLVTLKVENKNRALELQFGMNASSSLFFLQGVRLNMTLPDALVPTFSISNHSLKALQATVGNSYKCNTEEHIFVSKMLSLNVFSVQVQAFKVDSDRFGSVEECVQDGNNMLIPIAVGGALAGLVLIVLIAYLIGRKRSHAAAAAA
Protocol: as §1, §2

EC50 [2]: 6.6 nM | Binding call [3]: No binding | Mean fluorescence [3]: 27 | Binding call ([4]; Table 17 Experiment no1): No binding | Mean fluorescence ([4]; Table 17 Experiment no1): 28
B1: MAb2: murine monoclonal anti-LAMP1 antibody, VH SEQ ID NO: 8, VL SEQ ID NO: 12 (antibody, V domains shown)
VH: QVQLQQSAAELARPGASVKMSCKASGYTFTSYTMHWVKQRPGQGLEWIGYFNPSSGYPEYNQKFKDKTTLTADKSSNTAFIQLNSLTSEDSAVYYCSRGYYYGSRGYALDFWGQGASVTVSS
VL: NIVLTQSPVSLAVSLGQRATISCRASESVDINGNTFMHWYQQKPGQSPKLVIYAASNIESGVPARFSGSGSSTDFTFTIDPVEADDVATYYCQQNIEDPWTFGGGTKVEIK
modifications: antibod fragment; antibody fragment
LAMP1 membrane reinforcement in FFPE format by IHC [1]: can not lead to the detection of LAMP1 reinforcement in FFPE format

EC50 [2]: 5.5 nM | Binding call [3]: Binding | Mean fluorescence [3]: 891 | Binding call ([4]; Table 17 Experiment no1): No binding | Mean fluorescence ([4]; Table 17 Experiment no1): 6 | Binding call ([4]; Table 17 Experiment no2): No binding | Mean fluorescence ([4]; Table 17 Experiment no2): 2
B2: MAb1: murine monoclonal anti-LAMP1 antibody, VH SEQ ID NO: 1, VL SEQ ID NO: 5 (antibody, V domains shown)
VH: QVQLQQSGAELVKPGASVKMSCKASGYIFTNYNIHWVKKSPGQGLEWIGAIYPGNGDAPYSQKFKDKATLTADKSSSTTYMQLSRLTSEDSAVYYCVRANWDVAFAYWGQGTLVSVSA
VL: DIQMTQSPPSLSASLGGKVTITCKASQDIDRYMAWYQDKPGKGPRLLIHDTSTLQPGIPSRFSGSGSGRDYSFSISNLEPEDIATYYCLQYDNLWTFGGGTKLEIK
modifications: Antibody Fragment; antibody fragment
LAMP1 membrane reinforcement in FFPE format by IHC [1]: can not lead to the detection of LAMP1 reinforcement in FFPE format
